One block for each molecule: values may come before it.
Columns and labels:
[1] = tested on: Macaca fascicularis PRLR (mfPRLR.mmh; SEQ ID NO:403); experiment: Surface plasmon resonance (Biacore T200), antibody-capture format; format: binding; settings: analyte mfPRLR.mmh
Procedure, shortened: (§1)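 Antibodies (human IgG1 Fc) captured on an anti-human Fc sensor surface; soluble monomeric (.mmh) or dimeric (.mFc) PRLR injected as analyte. ka and kd obtained by fitting to a 1:1 binding model.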

[2] = target: T1, dimeric human PRLR (hPRLR.mFc; SEQ ID NO:402) (Homo sapiens, UniProt P16471); experiment: as above; format: binding; settings: analyte hPRLR.mFc
T1 construct: dimeric (hPRLR.mFc)
T1 sequence (P16471 with tags, fused parts or gaps): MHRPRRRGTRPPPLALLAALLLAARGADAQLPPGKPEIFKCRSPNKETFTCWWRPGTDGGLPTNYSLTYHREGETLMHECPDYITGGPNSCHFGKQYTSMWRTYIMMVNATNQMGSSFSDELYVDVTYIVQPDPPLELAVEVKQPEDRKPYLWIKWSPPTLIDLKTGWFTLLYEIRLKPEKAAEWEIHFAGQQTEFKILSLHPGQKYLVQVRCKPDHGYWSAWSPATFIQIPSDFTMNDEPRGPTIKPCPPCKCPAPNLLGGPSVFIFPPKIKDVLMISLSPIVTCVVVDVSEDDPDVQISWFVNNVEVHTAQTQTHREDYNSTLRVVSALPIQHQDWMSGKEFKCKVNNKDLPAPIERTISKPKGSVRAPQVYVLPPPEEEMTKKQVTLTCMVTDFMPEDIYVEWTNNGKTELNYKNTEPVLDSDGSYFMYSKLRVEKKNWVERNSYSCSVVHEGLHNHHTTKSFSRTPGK
Procedure, shortened: as §1

[3] = target: T2, monomeric human PRLR (hPRLR.mmh; SEQ ID NO:401) (Homo sapiens, UniProt P16471); experiment: as above; format: binding; settings: analyte hPRLR.mmh
T2 construct: soluble monomeric (hPRLR.mmh); mmh (myc-myc-hexahistidine) (C)
T2 sequence (P16471 with tags, fused parts or gaps): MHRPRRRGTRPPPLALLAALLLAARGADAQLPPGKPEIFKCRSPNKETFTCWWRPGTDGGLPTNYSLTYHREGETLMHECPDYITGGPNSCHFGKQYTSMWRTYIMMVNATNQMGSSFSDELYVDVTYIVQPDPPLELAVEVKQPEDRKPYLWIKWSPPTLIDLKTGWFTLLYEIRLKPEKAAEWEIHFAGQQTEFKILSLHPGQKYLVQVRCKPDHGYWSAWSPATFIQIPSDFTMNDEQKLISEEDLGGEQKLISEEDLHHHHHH
Procedure, shortened: as §1

HEK293 parental cells = experiment: FACS cell surface binding; set-up: species or system human
Procedure, shortened: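 Values are mean fluorescence intensity relative to an isotype control (background). Antibodies at 10 μg/ml were incubated on ice for 30 min with HEK293 lines stably overexpressing HA-tagged species PRLR or with parental cells. A PE-conjugated anti-human secondary was used for detection.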

[4] = target: T3, human PRLR on HEK293/hPRLR cells (Homo sapiens, UniProt P16471); experiment: FACS cell surface binding
T3 construct: HA; expressed in transfected cells; host or cells: HEK293
T3 sequence (P16471 25-622): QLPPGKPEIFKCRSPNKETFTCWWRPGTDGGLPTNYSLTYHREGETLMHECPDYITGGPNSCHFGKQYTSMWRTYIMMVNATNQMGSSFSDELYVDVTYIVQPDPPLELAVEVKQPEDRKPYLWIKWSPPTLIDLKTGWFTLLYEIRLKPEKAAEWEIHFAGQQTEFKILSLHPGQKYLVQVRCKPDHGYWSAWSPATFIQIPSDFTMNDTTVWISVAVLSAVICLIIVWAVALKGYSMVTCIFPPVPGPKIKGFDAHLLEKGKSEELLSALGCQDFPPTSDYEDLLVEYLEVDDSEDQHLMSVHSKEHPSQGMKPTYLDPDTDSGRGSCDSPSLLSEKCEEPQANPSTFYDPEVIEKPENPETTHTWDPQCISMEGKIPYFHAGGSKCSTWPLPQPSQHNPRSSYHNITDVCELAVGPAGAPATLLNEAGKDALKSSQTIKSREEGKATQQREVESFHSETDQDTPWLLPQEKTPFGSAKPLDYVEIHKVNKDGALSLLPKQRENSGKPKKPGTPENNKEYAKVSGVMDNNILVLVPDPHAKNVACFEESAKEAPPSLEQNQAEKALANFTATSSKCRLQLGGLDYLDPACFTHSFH
Procedure, shortened: (§2)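 Stable HEK293 transfectants carrying HA-tagged PRLR (human, Macaca fascicularis, mouse) were selected ≥2 weeks in G418. Cells were exposed to 10 μg/ml test antibody on ice for 30 min, washed, and labelled with PE anti-human antibody. Fluorescence was reported as fold change versus isotype.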

[5] = target: T4, monkey PRLR on HEK293/mfPRLR cells (Macaca fascicularis, UniProt A0A2K5WXK1); experiment: FACS cell surface binding
T4 construct: HA; expressed in transfected cells; host or cells: HEK293
T4 sequence (A0A2K5WXK1 25-619): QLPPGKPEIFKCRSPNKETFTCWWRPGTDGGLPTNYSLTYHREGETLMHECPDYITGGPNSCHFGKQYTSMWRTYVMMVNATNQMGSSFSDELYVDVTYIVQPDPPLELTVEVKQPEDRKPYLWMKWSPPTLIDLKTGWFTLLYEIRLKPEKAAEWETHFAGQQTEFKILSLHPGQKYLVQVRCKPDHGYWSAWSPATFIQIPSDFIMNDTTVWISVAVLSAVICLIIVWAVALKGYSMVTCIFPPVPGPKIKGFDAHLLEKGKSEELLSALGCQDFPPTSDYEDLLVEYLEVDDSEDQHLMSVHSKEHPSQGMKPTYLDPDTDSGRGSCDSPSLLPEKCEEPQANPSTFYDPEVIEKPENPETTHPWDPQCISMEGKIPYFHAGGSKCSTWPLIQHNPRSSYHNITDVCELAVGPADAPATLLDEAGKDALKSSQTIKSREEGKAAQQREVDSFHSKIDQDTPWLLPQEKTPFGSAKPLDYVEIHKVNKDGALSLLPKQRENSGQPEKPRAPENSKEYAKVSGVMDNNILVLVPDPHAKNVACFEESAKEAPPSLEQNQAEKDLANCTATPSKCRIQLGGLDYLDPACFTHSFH
Procedure, shortened: as §2

[6] = target: T5, mouse PRLR on HEK293/mPRLR cells (Mus musculus, UniProt Q08501); experiment: FACS cell surface binding
T5 construct: HA; expressed in transfected cells; host or cells: HEK293
T5 sequence (Q08501 20-608): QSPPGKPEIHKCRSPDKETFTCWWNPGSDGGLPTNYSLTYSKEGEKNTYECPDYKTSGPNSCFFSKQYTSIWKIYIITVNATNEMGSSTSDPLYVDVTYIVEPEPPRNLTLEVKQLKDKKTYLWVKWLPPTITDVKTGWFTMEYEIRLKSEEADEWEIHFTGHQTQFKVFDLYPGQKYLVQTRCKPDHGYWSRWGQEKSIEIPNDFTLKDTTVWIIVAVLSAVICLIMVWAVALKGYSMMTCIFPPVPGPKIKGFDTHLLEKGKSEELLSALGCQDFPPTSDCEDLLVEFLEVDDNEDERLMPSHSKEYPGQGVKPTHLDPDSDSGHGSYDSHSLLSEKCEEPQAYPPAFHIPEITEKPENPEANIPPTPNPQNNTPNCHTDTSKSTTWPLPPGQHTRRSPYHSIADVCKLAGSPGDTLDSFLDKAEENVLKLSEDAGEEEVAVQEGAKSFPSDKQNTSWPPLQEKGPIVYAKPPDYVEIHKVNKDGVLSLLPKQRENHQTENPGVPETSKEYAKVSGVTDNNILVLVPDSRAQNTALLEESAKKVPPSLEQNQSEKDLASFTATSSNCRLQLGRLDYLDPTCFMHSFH
Procedure, shortened: as §2

[7] = target: T6, native PRLR expressing T47D cells (Homo sapiens, UniProt P16471); experiment: FACS cell surface binding
T6 construct: a native PRLR expressing cell line (T47D); endogenous in cells; host or cells: T47D
T6 sequence (P16471 25-622): T3 sequence (P16471 25-622)
Procedure, shortened: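 Binding expressed as mean fluorescence fold change above isotype background, measured by FACS after 30 min on ice with 10 μg/ml antibody and PE-conjugated anti-human detection. T47D, which natively expresses PRLR, tested with engineered HEK293/hPRLR and non-expressing HEK293 cells.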

Sequence of Macaca fascicularis PRLR (mfPRLR.mmh; SEQ ID NO:403) (as listed by the source): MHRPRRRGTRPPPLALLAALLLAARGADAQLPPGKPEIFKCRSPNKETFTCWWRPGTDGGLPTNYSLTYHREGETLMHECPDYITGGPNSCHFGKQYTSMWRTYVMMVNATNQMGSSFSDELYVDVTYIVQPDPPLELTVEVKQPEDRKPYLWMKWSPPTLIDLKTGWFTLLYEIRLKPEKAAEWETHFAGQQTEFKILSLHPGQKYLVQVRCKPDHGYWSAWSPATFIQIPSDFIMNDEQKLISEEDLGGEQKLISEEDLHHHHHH

- kd ([1]; 25° C.): 0.000793 s⁻¹
- kd ([1]; 37° C.): 0.00321 s⁻¹
- ka ([2]; 25° C.): 542000 M/s
- kd ([2]; 25° C.): 0.000104 s⁻¹
- ka ([2]; 37° C.): 646000 M/s
- kd ([2]; 37° C.): 0.000198 s⁻¹
- ka ([3]; 25° C.): 565000 M/s
- kd ([3]; 25° C.): 0.000799 s⁻¹
- ka ([3]; 37° C.): 940000 M/s
- kd ([3]; 37° C.): 0.00329 s⁻¹
- FACS Cell Binding [4]: 37 Fold Above Background
- FACS Cell Binding [5]: 24 Fold Above Background
- FACS Cell Binding [6]: 1 Fold Above Background
- FACS Cell Binding [7]: 34 Fold Above Background
B1: H1H6790P: fully human anti-PRLR antibody, human IgG1 Fc; HCVR/LCVR SEQ ID NOs 114/122 (antibody, V domains shown)
VH: EVQLVESGGGLVQPGGSLRLSCAASGFTFSSYAMTWVRQAPGKGLEWVSAITGSVGNTYYADSVKGRFTISRDNSKNTLYLQMNSLGAEDTAEYYCAKGAGMTTNWYLDLWGRGTLVTVSS
VL: DIVMTQSPDSLAVSLGARATINCKSSQSVLYSSNNQNYLTWYQQKPGQPPKLLIKWASTRESGVPDRFSGSGSGTDFTLTISSLQAEDVAVYYCQQYASSPYTFGQGTKLEIK
- ka ([1]; 25° C.): 389000 M/s
- ka ([1]; 37° C.): 615000 M/s
- FACS Cell Binding (HEK293 parental cells): 1 Fold Above Background

- kd ([1]; 25° C.): 0.00038 s⁻¹
- kd ([1]; 37° C.): 0.00109 s⁻¹
- ka ([2]; 25° C.): 473000 M/s
- kd ([2]; 25° C.): 8.69e-05 s⁻¹
- ka ([2]; 37° C.): 644000 M/s
- kd ([2]; 37° C.): 0.000147 s⁻¹
- ka ([3]; 25° C.): 421000 M/s
- kd ([3]; 25° C.): 0.000409 s⁻¹
- ka ([3]; 37° C.): 808000 M/s
- kd ([3]; 37° C.): 0.00119 s⁻¹
- FACS Cell Binding [4]: 35 Fold Above Background
- FACS Cell Binding [5]: 29 Fold Above Background
- FACS Cell Binding [6]: 1 Fold Above Background
- FACS Cell Binding [7]: 41 Fold Above Background
B2: H1H6800P: fully human anti-PRLR antibody, human IgG1 Fc; HCVR/LCVR SEQ ID NOs 194/202 (antibody, V domains shown)
VH: EVQLVESGGGLVQPGRSLRLSCAASGFTFDGYAMHWVRQGPGKGLEWVSGISWYSDTLGYADSVKGRFTISRDNAKNSLYLQMNSLRTEDTAFYYCAKISSSGWAFDYWGQGTLVTVSS
VL: EIVLTQSPGTLSLSPGERATLSCRASHSVSSAYLAWYQQKPGQTPRLLIYGTSSRATGIPDRFSGSGSGTDFTLTISRLEPEDFAVYYCQQYGSSPLFTFGPGTKVDIK
- ka ([1]; 25° C.): 303000 M/s
- ka ([1]; 37° C.): 439000 M/s
- FACS Cell Binding (HEK293 parental cells): 1 Fold Above Background

- kd ([1]; 25° C.): 0.000393 s⁻¹
- kd ([1]; 37° C.): 0.00107 s⁻¹
- ka ([2]; 25° C.): 229000 M/s
- kd ([2]; 25° C.): 7.57e-05 s⁻¹
- ka ([2]; 37° C.): 410000 M/s
- kd ([2]; 37° C.): 0.000142 s⁻¹
- ka ([3]; 25° C.): 235000 M/s
- kd ([3]; 25° C.): 0.000332 s⁻¹
- ka ([3]; 37° C.): 339000 M/s
- kd ([3]; 37° C.): 0.00102 s⁻¹
- FACS Cell Binding [4]: 2 Fold Above Background
- FACS Cell Binding [5]: 32 Fold Above Background
- FACS Cell Binding [6]: 2 Fold Above Background
- FACS Cell Binding [7]: 43 Fold Above Background
B3: H1H6793P: fully human anti-PRLR antibody, human IgG1 Fc; HCVR/LCVR SEQ ID NOs 146/154 (antibody, V domains shown)
VH: EVQLVESGGGLVQPGGSLRLSCAASGFSFSIYAMSWFRQAPGKGLEWVSAINGRGDGTHYADSVKGRFTISRDNSKTTLYLQMSSLRAEDTAVYYCAKPVMSTNGFDIWGQGTMVTVSS
VL: DIQMTQSPSTLSASVGDRVTITCRASQSISSWLAWYQLKPGKAPKLLIYKASNLESGVPSRFSGSGSGTEFTLTISSLQPDDFATYYCQQYNIYWTFGQGTKVEIK
- ka ([1]; 25° C.): 177000 M/s
- ka ([1]; 37° C.): 233000 M/s
- FACS Cell Binding (HEK293 parental cells): 2 Fold Above Background

- kd ([1]; 25° C.): 0.000983 s⁻¹
- kd ([1]; 37° C.): 0.00286 s⁻¹
- ka ([2]; 25° C.): 303000 M/s
- kd ([2]; 25° C.): 9.48e-05 s⁻¹
- ka ([2]; 37° C.): 499000 M/s
- kd ([2]; 37° C.): 0.000176 s⁻¹
- ka ([3]; 25° C.): 324000 M/s
- kd ([3]; 25° C.): 0.000794 s⁻¹
- ka ([3]; 37° C.): 435000 M/s
- kd ([3]; 37° C.): 0.00229 s⁻¹
- FACS Cell Binding [4]: 37 Fold Above Background
- FACS Cell Binding [5]: 28 Fold Above Background
- FACS Cell Binding [6]: 3 Fold Above Background
- FACS Cell Binding [7]: 37 Fold Above Background
B4: H1H6792P: fully human anti-PRLR antibody, human IgG1 Fc; HCVR/LCVR SEQ ID NOs 130/138 (antibody, V domains shown)
VH: EVQLVESGGGLVQPGRSLRLSCAASGFTLDDHAVHWVRQAPGKGLEWVSGISWNSVYIDYADSVKGRFTIFRDNAKNSLYLQMNSLRAEDTAFYYCARDIEGARDYWGQGTLVTVSS
VL: DIQMTQSPSSLSASVGDRVTITCRASQGIRNDLGWYQQKPGKAPKRLIYAASSLQSGVPSRFSGSGYGTEFTLTISSLQPEDFAPYYCLQHNSYPLTFGGGTKVEIK
- ka ([1]; 25° C.): 236000 M/s
- ka ([1]; 37° C.): 305000 M/s
- FACS Cell Binding (HEK293 parental cells): 1 Fold Above Background

From US10925971B2, “Methods of treating PRLR positive breast cancer” (Regeneron Pharmaceuticals, Inc., priority 2016, dated 2021)
